Kd data for 2 molecules are collected here from US8226935 (dated 2012).

The test has as its target T1, heregulin (125I-HRG) (human, UniProt Q02297).
T1 chain: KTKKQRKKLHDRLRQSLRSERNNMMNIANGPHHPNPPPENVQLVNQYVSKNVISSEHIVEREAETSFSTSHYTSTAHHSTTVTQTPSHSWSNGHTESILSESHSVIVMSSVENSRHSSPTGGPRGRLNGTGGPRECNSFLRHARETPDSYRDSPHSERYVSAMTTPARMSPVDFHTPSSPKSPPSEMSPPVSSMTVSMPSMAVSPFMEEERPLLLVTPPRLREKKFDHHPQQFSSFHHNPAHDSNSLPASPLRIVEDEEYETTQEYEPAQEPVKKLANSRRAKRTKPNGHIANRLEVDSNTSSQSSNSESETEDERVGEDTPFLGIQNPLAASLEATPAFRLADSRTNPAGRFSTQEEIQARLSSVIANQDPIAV
Kind of test: other 125I-HRG radioligand binding, Scatchard.

B1: ErbB4-IgG (antibody)
chain: QSVCAGTENKLSSLSDLEQQYRALRKYYENCEVVMGNLEITSIEHNRDLSFLRSVREVTGYVLVALNQFRYLPLENLRIIRGTKLYEDRYALAIFLNYRKDGNFGLQELGLKNLTEILNGGVYVDQNKFLCYADTIHWQDIVRNPWPSNLTLVSTNGSSGCGRCHKSCTGRCWGPTENHCQTLTRTVCAEQCDGRCYGPYVSDCCHRECAGGCSGPKDTDCFACMNFNDSGACVTQCPQTFVYNPTTFQLEHNFNAKYTYGAFCVKKCPHNFVVDSSSCVRACPSSKMEVEENGIKMCKPCTDICPKACDGIGTGSLMSAQTVDSSNIDKFINCTKINGNLIFLVTGIHGDPYNAIEAIDPEKLNVFRTVREITGFLNIQSWPPNMTDFSVFSNLVTIGGRVLYSGLSLLILKQQGITSLQFQSLKEISAGNIYITDNSNLCYYHTINWTTLFSTINQRIVIRDNRKAENCTAEGMVCNHLCSSDGCWGPGPDQCLSCRRFSRGRICIESCNLYDGEFREFENGSICVECDPQCEKMEDGLLTCHGPGPDNCTKCSHFKDGPNCVEKCPDGLQGANSFIFKYADPDRECHPCHPNCTQGCNGPTSHDCIYYPWTGHSTLPQHARTP
modifications: homodimeric ECD-human IgG Fc immunoadhesin
Turning to B1, the Kd – broadly, the constant that tells how readily two partners part at equilibrium – was 4.98 nM.

B2: ErbB3/4-IgG (antibody)
chain 1: not shown
chain 2: QSVCAGTENKLSSLSDLEQQYRALRKYYENCEVVMGNLEITSIEHNRDLSFLRSVREVTGYVLVALNQFRYLPLENLRIIRGTKLYEDRYALAIFLNYRKDGNFGLQELGLKNLTEILNGGVYVDQNKFLCYADTIHWQDIVRNPWPSNLTLVSTNGSSGCGRCHKSCTGRCWGPTENHCQTLTRTVCAEQCDGRCYGPYVSDCCHRECAGGCSGPKDTDCFACMNFNDSGACVTQCPQTFVYNPTTFQLEHNFNAKYTYGAFCVKKCPHNFVVDSSSCVRACPSSKMEVEENGIKMCKPCTDICPKACDGIGTGSLMSAQTVDSSNIDKFINCTKINGNLIFLVTGIHGDPYNAIEAIDPEKLNVFRTVREITGFLNIQSWPPNMTDFSVFSNLVTIGGRVLYSGLSLLILKQQGITSLQFQSLKEISAGNIYITDNSNLCYYHTINWTTLFSTINQRIVIRDNRKAENCTAEGMVCNHLCSSDGCWGPGPDQCLSCRRFSRGRICIESCNLYDGEFREFENGSICVECDPQCEKMEDGLLTCHGPGPDNCTKCSHFKDGPNCVEKCPDGLQGANSFIFKYADPDRECHPCHPNCTQGCNGPTSHDCIYYPWTGHSTLPQHARTP
modifications: heterodimeric ECD-human IgG Fc immunoadhesin (mixture with homodimers)
B2 gave a Kd of 5.98 nM.
